The source of these data is patent US20250277030A1 (Zymeworks, published 2025).

The target of assay [1] is T1, human sodium-dependent phosphate transporter 2B (NaPi2b) (human, UniProt O95436 1-690).
T1 sequence: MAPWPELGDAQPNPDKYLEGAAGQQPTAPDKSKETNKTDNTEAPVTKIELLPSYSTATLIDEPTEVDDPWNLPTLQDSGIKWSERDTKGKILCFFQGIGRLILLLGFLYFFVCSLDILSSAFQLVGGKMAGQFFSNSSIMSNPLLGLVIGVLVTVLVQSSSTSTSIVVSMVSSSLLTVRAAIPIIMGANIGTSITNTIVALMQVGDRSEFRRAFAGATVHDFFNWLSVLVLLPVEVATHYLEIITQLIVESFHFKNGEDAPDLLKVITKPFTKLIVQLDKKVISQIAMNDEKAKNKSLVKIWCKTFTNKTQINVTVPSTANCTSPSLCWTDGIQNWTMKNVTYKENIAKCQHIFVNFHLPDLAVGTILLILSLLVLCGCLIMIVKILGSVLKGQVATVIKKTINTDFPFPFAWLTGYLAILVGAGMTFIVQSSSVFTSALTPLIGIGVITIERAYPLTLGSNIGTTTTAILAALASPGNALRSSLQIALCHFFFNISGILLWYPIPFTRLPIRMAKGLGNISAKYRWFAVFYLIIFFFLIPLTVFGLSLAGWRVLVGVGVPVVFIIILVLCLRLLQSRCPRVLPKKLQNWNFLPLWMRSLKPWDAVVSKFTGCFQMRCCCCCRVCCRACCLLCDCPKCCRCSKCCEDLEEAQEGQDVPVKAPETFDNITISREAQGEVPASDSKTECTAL
In words: cell-based or functional assay.

Assay [2] deals with T1, human sodium-dependent phosphate …. Briefly: flow cytometry, IGROV-1 cells (endogenous NaPi2b), 24 h at 4 °C. On the procedure: (§1) IGROV-1 cells express endogenous NaPi2b at a high level.
(§2) Briefly, cells were seeded at 50,000 cells/well in conical-bottom 96-well plates and treated with test antibody for 24 hours at 4° C. to prevent internalization. […] Following incubation, cells were washed and stained with anti-Human IgG Fc AF647 conjugate (Jackson Immuno Research Labs, West Grove, PA; Cat. No. 109-605-098) at 4° C. for 30 min. Following incubation and washing, fluorescence was detected by flow cytometry on a BD LSRFortessa™ Cell Analyzer (BD Biosciences, Franklin Lake, NJ) with 1,000 minimum events collected per well. The AF647/APC-A GeoMean (fluorescence signal geometric mean, proportional to anti-Human AF647 binding) was calculated for the live cell population using FlowJo™ Version 10.8.1 (BD Biosciences, Franklin Lake, NJ) and plotted for each test antibody using GraphPad Prism Version 9 (GraphPad Software, San Diego, CA).
In general terms: In flow cytometry, cells or beads pass a laser one at a time.

Assay [3] shares this target. In words: flow cytometry, IGROV-1 cells (endogenous NaPi2b), 24 h at 4 °C; apparent Kd. The protocol: as §1, §2
For assay [4] the target is unchanged. In words: flow cytometry on IGROV-1 cells (endogenous NaPi2b), 24 h at 4 C, anti-human IgG Fc AF647 detection. The protocol: as §1, §2
Assay [5] has as its target T2, KLH (Sigma-Aldrich, H8283).
T2 construct: also called keyhole limpet hemocyanin
In words: non-specific binding ELISA, KLH coated at 5 µg/mL, antibody at 100 nM. In general terms: An ELISA detects its analyte on a solid surface through an enzyme-linked reagent.
Experimental: NS-ELISA was carried out in Corning®96-well EIA/RIA Easy Wash™ Clear Flat Bottom Polystyrene High Bind Microplate coated overnight at 4° C. with 50 μL of Heparin (Sigma, H3149) diluted with 50 mM sodium carbonate pH 9.6 to a final concentration of 250 μg/mL. The plate was incubated for 2 days at room temperature, wells that were coated with heparin were not covered to allow air dry. […] 50 μL each of insulin, KLH, dsDNA and ssDNA were added to a 96 well plate, followed by the incubation at 37° C. for 2 h. The coating materials were removed, and the plate was blocked with 200 μL of Gibco™ PBS pH7.4, 0.1% Tween®20, and incubated for 1 h at room temperature with shaking at 200 rpm. The plate was washed 3 times with Gibco™ PBS pH7.4, 0.1% Tween 20. […] Reactions were stopped after approximately 10 minutes by adding 100 μL of 1 M HCl to each well, and absorbance was read at 450 nm. Binding scores were calculated as the ratio of the ELISA signal of the antibody (antibody-treated) to the signal of a well containing buffer instead of the primary antibody (untreated). The cutoffs considered for each binding molecule (ssDNA, KLH, insulin, dsDNA and heparin) were internally calculated, based on the average of Zymeworks Inc. produced antibodies and antibodies benchmarks published in the literature.

In assay [6] the target is T1, human sodium-dependent phosphate …. In words: KinExA, IGROV-1 cells, monovalent format. The protocol:
The binding affinity of anti-NaPi2b antibody constructs was assessed by Kinexa in the endogenous NaPi2b-expressing cell line, IGROV-1.
(§3) The cell-binding assay was set up using the antibody constructs or variants as constant binding partner at two different concentrations of 50 pM and 500 pM. For the titration curve with antibody variants fixed at 50 pM, at least 10 million IGROV-1 cells were used as titrant. For the titration curve with antibody variants fixed at 500 pM, at least 5 million cells were used as titrant. The antibody variants and cells were mixed in PBS pH 7.4, 1 mg/mL BSA, 0.2% NaN₃ and incubated at 4° C. for 7 days with gentle rotation until equilibrium was reached. After incubation, the mixture of antibody variants and cells was centrifuged to separate the cells from the unbound free antibody variants. The free antibody variants were loaded onto the KinExA 3200 (Sapidyne, Boise, Idaho) with biotinylated—anti-human IgG PMMA as solid phase and 0.5 μg/mL of Alexa 647 goat anti-human IgG (Jackson ImmunoResearch, West Grove, PA) as detection antibody.
(§4) N-curve analysis was used to calculate the affinity and receptor expression level with the concentrations of antibody variant as reference point.
On the technique in general: A kinetic exclusion assay measures how much of one partner remains free in solution.

Assay [7] shares this target. Briefly: KinExA, IGROV-1 cells (endogenous NaPi2b) as titrant, monovalent antibody constant at 50 and 500 pM, N-curve analysis. The protocol:
as §3, §4

Assay [8] shares this target. In words: flow cytometry, HCC-78 cells (endogenous NaPi2b). The protocol:
(§5) Briefly, HEK293-6e cells were transfected for ˜24 hours to transiently express human NaPi2b, cynomolgus or mouse NaPi2b, at 1 μg of DNA per 1 million cells. Following transfection, 50,000 cells per well were seeded in V-bottom 96-well plates and incubated with 200 nM of primary antibody for 18-24 hours at 4° C. to prevent internalization. Post-incubation, cells were washed and stained with anti-Human IgG Fc AF647 conjugate (Jackson Immuno Research Labs, West Grove, PA, Cat. No. 109-605-098, Lot. No. 124868) at 4° C. for 1 hour. Following staining and washing, fluorescence was detected by flow cytometry on BD LSRFortessa™ Cell Analyzer (BD Biosciences, Franklin Lake, NJ) with 10,000 minimum events collected per well. The AF647/APC-A GeoMean (fluorescence signal geometric mean, proportional to anti-Human AF647 binding) was calculated for the live singlet cell population for each primary antibody using FlowJo™ v8 software (BD Biosciences, Franklin Lake, NJ). The Bmax and Kd of each primary antibody were calculated using GraphPad Prism Version 9 (GraphPad Software, San Diego, CA)
(§6) The ability of ADCs to bind to cells expressing NaPi2b was assessed. […] Binding to endogenous high NaPi2b-expressing cell lines IGROV-1 and HCC-78 was assessed by flow cytometry according to methods described in Example 5.

The target is the same in assay [9]. In words: flow cytometry, IGROV-1 cells (endogenous NaPi2b). The protocol: as §5, §6
For assay [10] the target is unchanged. Briefly: flow cytometry, HCC-78 cells (endogenous NaPi2b); apparent Kd. On the procedure: as §5, §6
Assay [11] has the same target. Briefly: flow cytometry, IGROV-1 cells (endogenous NaPi2b); apparent Kd. The protocol: as §5, §6
Assay [12] shares this target. In words: flow cytometry on IGROV-1 cells (endogenous NaPi2b), 4 C, anti-human IgG Fc AF647 detection. On the procedure: as §5, §6
For assay [13] the target is unchanged. Briefly: flow cytometry on HCC-78 cells (endogenous NaPi2b), 4 C, anti-human IgG Fc AF647 detection. The protocol:
as §5, §6

B1: v18992-DL2, MX35 conjugated to MT-VC-Compound 1 (DAR 3) (antibody, human IgG1, kappa)
heavy 1: GQVQLVQSGAEVVKPGASVKMSCKASGYTFTGYNIHWVKQAPGQGLEWIGAIYPGNGDTSYKQKFRGRATLTADTSTSTVYMELSSLRSEDSAVYYCARGETARATFAYWGQGTLVTVSSASTKGPSVFPLAPSSKSTSGGTAALGCLVKDYFPEPVTVSWNSGALTSGVHTFPAVLQSSGLYSLSSVVTVPSSSLGTQTYICNVNHKPSNTKVDKKVEPKSCDKTHTCPPCPAPELLGGPSVFLFPPKPKDTLMISRTPEVTCVVVDVSHEDPEVKFNWYVDGVEVHNAKTKPREEQYNSTYRVVSVLTVLHQDWLNGKEYKCKVSNKALPAPIEKTISKAKGQPREPQVYVYPPSRDELTKNQVSLTCLVKGFYPSDIAVEWESNGQPENNYKTTPPVLDSDGSFALVSKLTVDKSRWQQGNVFSCSVMHEALHNHYTQKSLSLSPG
heavy 2: not shown
light: GDIQMTQSPSSLSASVGDRVTITCSASQDIGNFLNWYQQKPGKTVKVLIYYTSSLYSGVPSRFSGSGSGTDYTLTISSLQPEDFATYYCQQYSKLPLTFGQGTKLELKRTVAAPSVFIFPPSDEQLKSGTASVVCLLNNFYPREAKVQWKVDNALQSGNSQESVTEQDSKDSTYSLSSTLTLSKADYEKHKVYACEVTHQGLSSPVTKSFNRGEC
modifications: MT-VC-Compound 1 (DL2) on cysteines freed by reduction; positions not given; MT-VC-Compound 1 (DL2) on cysteines freed by reduction; positions not given; DAR 3 for the whole antibody
notes: also called MX35 Compound 1 ADC; MX35-DL2 ADC
In the case of B1, in assay [1], the “In vitro cytotoxicity EC50 (nM), HCC-78” value was 0.13 nM; the “In vitro cytotoxicity EC50 (nM), IGROV-1” value came out at 0.11 nM; the “In vitro cytotoxicity EC50 (nM), OVCAR-3” value was found to be 0.02 nM. In addition, the “Bmax (MFI)” value in [2] was 41200 MFI. Besides, in assay [3], the Kd amounted to 1.22 nM. In addition, in [4], the EC50 (read off the curve) (usually the concentration that produces a half-maximal response) is around 1 nM.

B2: v29452 humanized anti-NaPi2b antibody (H1L3) (antibody, human IgG1, kappa, V domains shown)
VH: QVQLVQSGAEVKKPGASVKVSCKASGFTFTSYNVHWVRQAPGQGLEWMGAISPGNGDLSYAQKFQGRVTMTRDTSTSTVYMELSSLRSEDTAVYYCARGRTGMGAVDYWGQGTLVTVSS
VL: DVQMTQSPSSLSASVGDRVTITCRASQDVYSYLNWYQQKPGKAVKLLIYYTSRLQSGVPSRFSGSGSGTDYTLTISSLQPEDIATYYCQQYNIFPWTFGQGTKLEIKR
Regarding B2, the “Bmax (MFI)” value in assay [2] stood at 47800 MFI. For the same molecule, in [5], the “NS-ELISA binding score (ratio of signal between antibody-treated and untreated)” value was 1.34 ratio. The Kd in [3] came out at 1.6 nM.

B3: v36123, monovalent format of humanized antibody variant 29452 (antibody, V domains shown)
VH: QVQLVQSGAEVKKPGASVKVSCKASGFTFTSYNVHWVRQAPGQGLEWMGAISPGNGDLSYAQKFQGRVTMTRDTSTSTVYMELSSLRSEDTAVYYCARGRTGMGAVDYWGQGTLVTVSS
VL: DVQMTQSPSSLSASVGDRVTITCRASQDVYSYLNWYQQKPGKAVKLLIYYTSRLQSGVPSRFSGSGSGTDYTLTISSLQPEDIATYYCQQYNIFPWTFGQGTKLEIK
notes: Only said to be the monovalent format of v29452; also called v36123 (VH1/VL3)
Consider B3, for which the “fold lower binding affinity than chimeric parental antibody construct (v29814)” value in assay [6] was around 2 fold. For the same molecule, the Kd in assay [7] is 0.297 nM.

B4: v36124, monovalent format of humanized antibody variant 29456 (antibody, V domains shown)
VH: QVQLVQSGAEVKKPGASVKVSCKASGFTFTSYNVHWVRQAPGQGLEWMGAISPGNGDLSYAQKFQGRVTMTRDTSTSTVYMELSSLRSEDTAVYYCARGRTGMGAVDYWGQGTLVTVSS
VL: DVQMTQSPSSLSASVGDRVTITCRASQDVYSYLNWYQQKPGKAVKLLIYYTSRLQSGVPSRFSGSGSGTDYTLTISSLQPEDFATYYCQQYNIFPWTFGQGTKLEIK
notes: Only said to be the monovalent format of v29456; also called v36124 (VH1/VL2)
Regarding B4, the “fold lower binding affinity than chimeric parental antibody construct (v29814)” value in assay [6] is around 2 fold. The molecule further gave a Kd in [7] of 0.283 nM.

B5: v29456-DL1, v29456 conjugated to MC-GGFG-AM-DXd1 (DAR 8) (antibody, human IgG1, kappa)
heavy: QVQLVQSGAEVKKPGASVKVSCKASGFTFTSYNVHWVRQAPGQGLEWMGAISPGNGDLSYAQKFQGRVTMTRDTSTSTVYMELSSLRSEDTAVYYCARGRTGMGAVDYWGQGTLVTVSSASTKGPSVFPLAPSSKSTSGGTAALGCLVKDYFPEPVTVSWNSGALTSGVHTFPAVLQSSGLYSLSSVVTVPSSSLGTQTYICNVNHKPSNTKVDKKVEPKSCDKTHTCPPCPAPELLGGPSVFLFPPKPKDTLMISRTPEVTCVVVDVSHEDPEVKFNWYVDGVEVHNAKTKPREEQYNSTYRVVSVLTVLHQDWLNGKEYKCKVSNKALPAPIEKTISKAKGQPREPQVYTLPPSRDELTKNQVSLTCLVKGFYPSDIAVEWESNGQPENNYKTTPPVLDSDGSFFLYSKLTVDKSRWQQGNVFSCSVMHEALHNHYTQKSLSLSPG
light: DVQMTQSPSSLSASVGDRVTITCRASQDVYSYLNWYQQKPGKAVKLLIYYTSRLQSGVPSRFSGSGSGTDYTLTISSLQPEDFATYYCQQYNIFPWTFGQGTKLEIKRTVAAPSVFIFPPSDEQLKSGTASVVCLLNNFYPREAKVQWKVDNALQSGNSQESVTEQDSKDSTYSLSSTLTLSKADYEKHKVYACEVTHQGLSSPVTKSFNRGEC
modifications: MC-GGFG-AM-DXd1 (DL1) on cysteines freed by reduction; positions not given; MC-GGFG-AM-DXd1 (DL1) on cysteines freed by reduction; positions not given; DAR 8 for the whole antibody
notes: also called v29456-MC-GGFG-AM-DXd1
On to B5, for which, in [1], the “In vitro cytotoxicity EC50 (nM), HCC-78” value worked out at 0.51 nM and the “In vitro cytotoxicity EC50 (nM), IGROV-1” value was 1.14 nM. This molecule also came in with a Bmax in assay [8] of 21800. The “Bmax (MFI)” value in assay [9] stood at 77000 MFI. In assay [10], the Kd came out at 2.27 nM. The Kd in assay [11] stood at 0.67 nM. Besides, the concentration giving a half-maximal response (EC50 (read off the curve)) in assay [12] is around 0.7 nM.

B6: v29456-DL2, v29456 conjugated to MT-VC-Compound 1 (DAR 4) (antibody, human IgG1, kappa)
heavy: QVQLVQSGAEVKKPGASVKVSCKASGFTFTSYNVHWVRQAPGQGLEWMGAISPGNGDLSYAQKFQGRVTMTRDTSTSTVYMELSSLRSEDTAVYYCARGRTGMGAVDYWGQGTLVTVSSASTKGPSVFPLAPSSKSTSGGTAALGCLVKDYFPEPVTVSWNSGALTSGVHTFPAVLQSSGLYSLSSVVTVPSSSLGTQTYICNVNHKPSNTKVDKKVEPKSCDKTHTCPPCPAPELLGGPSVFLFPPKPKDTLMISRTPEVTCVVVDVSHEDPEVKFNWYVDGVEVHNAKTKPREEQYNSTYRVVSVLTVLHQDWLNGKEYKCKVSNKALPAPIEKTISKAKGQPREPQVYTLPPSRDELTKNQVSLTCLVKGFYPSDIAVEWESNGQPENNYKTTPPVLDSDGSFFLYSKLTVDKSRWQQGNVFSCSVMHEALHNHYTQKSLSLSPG
light: DVQMTQSPSSLSASVGDRVTITCRASQDVYSYLNWYQQKPGKAVKLLIYYTSRLQSGVPSRFSGSGSGTDYTLTISSLQPEDFATYYCQQYNIFPWTFGQGTKLEIKRTVAAPSVFIFPPSDEQLKSGTASVVCLLNNFYPREAKVQWKVDNALQSGNSQESVTEQDSKDSTYSLSSTLTLSKADYEKHKVYACEVTHQGLSSPVTKSFNRGEC
modifications: MT-VC-Compound 1 (DL2) on cysteines freed by reduction; positions not given; MT-VC-Compound 1 (DL2) on cysteines freed by reduction; positions not given; DAR 4 for the whole antibody
notes: also called v29456-MT-VC-Compound 1
Turning to B6, in assay [1], the “In vitro cytotoxicity EC50 (nM), HCC-78” value came to 0.06 nM; the “In vitro cytotoxicity EC50 (nM), IGROV-1” value amounted to 0.08 nM; the “In vitro cytotoxicity EC50 (nM), OVCAR-3” value turned out to be 0.01 nM. Besides, the Bmax in assay [8] amounted to 20400. Moreover, the “Bmax (MFI)” value in assay [9] is 81400 MFI. In addition, the Kd in assay [10] is 2.32 nM. Besides, in assay [11], the Kd was determined as 0.77 nM. For the same molecule, the “EC50 (read off the curve)” value in [13] was around 2 nM.
